The target in one assay is T1, 4H349-bH.
T1 chain: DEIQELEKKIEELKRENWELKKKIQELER
The assay is described as follows: two-hybrid library CCNG1.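 Note: natural log of median RNA to DNA barcode read ratio; higher means stronger binding.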

The next assay addresses T2, 4H56-bH.
T2 chain: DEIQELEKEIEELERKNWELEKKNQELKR
In words: two-hybrid library CCNG1.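 Note: natural log of median RNA to DNA barcode read ratio; higher means stronger binding.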

The target of a further assay is T3, 4H730-bH.
T3 chain: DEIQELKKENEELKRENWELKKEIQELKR
The assay is described as follows: two-hybrid library CCNG1.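 Note: natural log of median RNA to DNA barcode read ratio; higher means stronger binding.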

Another assay addresses T4, 4H796-bH.
T4 chain: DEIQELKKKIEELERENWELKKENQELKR
In words: two-hybrid library CCNG1.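 Note: natural log of median RNA to DNA barcode read ratio; higher means stronger binding.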

In the next assay the target is T5, 4H932-bH.
T5 chain: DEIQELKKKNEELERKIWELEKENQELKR
In words: two-hybrid library CCNG1.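 Note: natural log of median RNA to DNA barcode read ratio; higher means stronger binding.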

Another assay has as its target T6, 4H949-bH.
T6 chain: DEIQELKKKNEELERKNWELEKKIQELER
In words: two-hybrid library CCNG1.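 Note: natural log of median RNA to DNA barcode read ratio; higher means stronger binding.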

The target of the next assay is T7, 4H457-bN.
T7 chain: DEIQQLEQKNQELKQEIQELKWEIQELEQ
The assay is described as follows: two-hybrid library CCNG1.

For a further assay, the target named is T8, 4H575-bN.
T8 chain: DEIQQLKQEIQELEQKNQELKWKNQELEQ
In words: two-hybrid library CCNG1.

The target in the next assay is T9, 4H683-bN.
T9 chain: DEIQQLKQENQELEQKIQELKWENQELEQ
The assay is described as follows: two-hybrid library CCNG1.

The next assay concerns the target T10, 4H754-bN.
T10 chain: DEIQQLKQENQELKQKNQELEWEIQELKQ
The assay is described as follows: two-hybrid library CCNG1.

For the next assay, the target named is T11, 4H780-bN.
T11 chain: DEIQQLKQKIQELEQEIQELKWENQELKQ
The assay is described as follows: two-hybrid library CCNG1.

The target of the next assay is T12, 4H797-bN.
T12 chain: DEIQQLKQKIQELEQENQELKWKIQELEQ
The assay is described as follows: two-hybrid library CCNG1.

In a further assay the target is T13, 4H855-bN.
T13 chain: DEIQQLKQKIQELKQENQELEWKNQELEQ
In words: two-hybrid library CCNG1.

For a further assay, the target named is T14, 4H918-bN.
T14 chain: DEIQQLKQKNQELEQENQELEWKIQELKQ
In words: two-hybrid library CCNG1.

The next assay concerns the target T15, 4H953-bN.
T15 chain: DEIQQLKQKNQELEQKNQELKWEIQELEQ
The assay is described as follows: two-hybrid library CCNG1.

The target of another assay is T16, 4H968-bN.
T16 chain: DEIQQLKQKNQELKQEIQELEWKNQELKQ
In words: two-hybrid library CCNG1.

The target of the next assay is T17, 4H3381-bH.
T17 chain: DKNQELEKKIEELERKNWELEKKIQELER
The assay is described as follows: two-hybrid library CCNG1.

In another assay the target is T18, 4H626-bN.
T18 chain: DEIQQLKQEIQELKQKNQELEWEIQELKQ
In words: two-hybrid library CCNG1.

For another assay, the target named is T19, 4H906-bN.
T19 chain: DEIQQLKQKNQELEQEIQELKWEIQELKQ
The assay is described as follows: two-hybrid library CCNG1.

The target in another assay is T20, 4H963-AA.
T20 chain: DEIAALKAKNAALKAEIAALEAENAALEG
In words: two-hybrid library CCmax.

A further assay addresses T21, APC4264-AA.
T21 chain: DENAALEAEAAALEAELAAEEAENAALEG
The assay is described as follows: two-hybrid library CCmax.

For the next assay, the target named is T22, APC4436-AA.
T22 chain: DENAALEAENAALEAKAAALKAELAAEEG
In words: two-hybrid library CCmax. Conditions: mean of both orientations.

The next assay addresses T23, APC5383-AA.
T23 chain: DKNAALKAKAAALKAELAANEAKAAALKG
In words: two-hybrid library CCmax. The conditions noted are these: mean of both orientations.

Another assay concerns the target T24, APC6108-AA.
T24 chain: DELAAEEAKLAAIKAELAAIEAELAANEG
The assay is described as follows: two-hybrid library CCmax. Conditions: mean of both orientations.

For a further assay, the target named is T25, APC7099-AA.
T25 chain: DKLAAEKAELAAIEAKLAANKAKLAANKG
In words: two-hybrid library CCmax. The conditions noted are these: mean of both orientations.

In a further assay the target is T26, APC8191-AA.
T26 chain: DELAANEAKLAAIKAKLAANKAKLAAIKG
The assay is described as follows: two-hybrid library CCmax.

Another assay has as its target T27, APC8910-AA.
T27 chain: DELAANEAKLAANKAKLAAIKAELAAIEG
The assay is described as follows: two-hybrid library CCmax. Conditions: mean of both orientations.

The target of the next assay is T28, APC9096-AA.
T28 chain: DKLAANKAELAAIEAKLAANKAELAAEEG
In words: two-hybrid library CCmax. The conditions noted are these: mean of both orientations.

Another assay has as its target T29, APC9319-AA.
T29 chain: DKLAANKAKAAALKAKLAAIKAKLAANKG
The assay is described as follows: two-hybrid library CCmax. The conditions noted are these: mean of both orientations.

The next assay concerns the target T30, 4H591-bN.
T30 chain: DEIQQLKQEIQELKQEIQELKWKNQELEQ
In words: two-hybrid library CCNG1.

A further assay has as its target T31, 4H3855-bN.
T31 chain: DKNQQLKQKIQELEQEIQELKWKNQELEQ
The assay is described as follows: two-hybrid library CCNG1.

Another assay has as its target T32, 4H4001-bN.
T32 chain: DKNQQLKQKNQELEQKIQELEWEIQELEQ
In words: two-hybrid library CCNG1.

The next assay deals with T33, 4H454-bN.
T33 chain: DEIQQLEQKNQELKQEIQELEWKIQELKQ
In words: two-hybrid library CCNG1.

A further assay has as its target T34, 4H568-bN.
T34 chain: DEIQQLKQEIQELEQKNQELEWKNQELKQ
The assay is described as follows: two-hybrid library CCNG1.

For the next assay, the target named is T35, 4H607-bN.
T35 chain: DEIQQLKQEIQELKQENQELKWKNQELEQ
In words: two-hybrid library CCNG1.

For a further assay, the target named is T36, 4H687-bN.
T36 chain: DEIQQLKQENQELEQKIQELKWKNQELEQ
In words: two-hybrid library CCNG1.

The target in the next assay is T37, 4H717-bN.
T37 chain: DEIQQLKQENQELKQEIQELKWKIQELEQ
The assay is described as follows: two-hybrid library CCNG1.

A further assay has as its target T38, 4H72-bN.
T38 chain: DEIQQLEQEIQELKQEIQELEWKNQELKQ
The assay is described as follows: two-hybrid library CCNG1.

The target in the next assay is T39, 4H883-bN.
T39 chain: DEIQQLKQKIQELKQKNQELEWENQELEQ
In words: two-hybrid library CCNG1.

A further assay deals with T40, 4H908-bN.
T40 chain: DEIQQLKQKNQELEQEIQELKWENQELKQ
In words: two-hybrid library CCNG1.

For the next assay, the target named is T41, 4H967-bN.
T41 chain: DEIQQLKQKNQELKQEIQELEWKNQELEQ
In words: two-hybrid library CCNG1.

On to DEIQELEKKIEELKRENWELKKKIQELER [4H349-bH], for which the interaction score was 0.275 in the assay with 4H349-bH; 0.452 with 4H56-bH; -0.225 in the assay with 4H730-bH; 0.227 with 4H796-bH; 0.654 with 4H932-bH; -0.023 with 4H949-bH.
Turning to DEIQQLEQKNQELKQEIQELKWEIQELEQ [4H457-bN], the interaction score with 4H457-bN is -1.6; with 4H575-bN it was -0.989; with 4H683-bN, -0.914; with 4H754-bN it was -0.487; in the assay with 4H780-bN it was -1.08; with 4H797-bN it was -1.31. Further, the interaction score with 4H855-bN was -2.15; with 4H918-bN it was -1.24; with 4H953-bN, -0.785; with 4H968-bN it was -1.86.
Regarding DKNQELEKKIEELERKNWELEKKIQELER [4H3381-bH], the interaction score was 1.27 with 4H3381-bH; -1.42 in the assay with 4H349-bH; -1.78 with 4H56-bH; -1.42 with 4H730-bH; -1.28 in the assay with 4H796-bH; -0.263 with 4H932-bH. In the assay with 4H949-bH, this molecule had an interaction score of 0.43.
As to DEIQQLKQEIQELKQKNQELEWEIQELKQ [4H626-bN], the interaction score in the assay with 4H626-bN was 0.832; with 4H906-bN, -0.523.
DEIAALKAKNAALKAEIAALEAENAALEG [4H963-AA] showed an interaction score with 4H963-AA of -2.11.
As to DEIQQLKQEIQELEQKNQELKWKNQELEQ [4H575-bN], the interaction score in the assay with 4H575-bN was -0.842; in the assay with 4H683-bN, 0.443; with 4H754-bN, -2.08; with 4H780-bN, -0.38; in the assay with 4H797-bN it was -1.51; in the assay with 4H855-bN it was 0.475. For the same molecule, the interaction score with 4H918-bN is 0.56; with 4H953-bN it was 0.476; in the assay with 4H968-bN, -0.976.
As for DENAALEAEAAALEAELAAEEAENAALEG [APC4264-AA], the interaction score is -1.24 in the assay with APC4264-AA; -2.34 with APC4436-AA; -1.3 with APC5383-AA; -1.5 with APC6108-AA; -1.96 with APC7099-AA; -1.56 with APC8191-AA. For the same molecule, the interaction score in the assay with APC8910-AA is -1.81; with APC9096-AA it was -1.45; with APC9319-AA it was -1.52.
Regarding DEIQQLKQEIQELKQEIQELKWKNQELEQ [4H591-bN], the figures for the interaction score with 4H591-bN, with 4H626-bN and with 4H906-bN were 1.27, -0.933 and -1.13, respectively.
Turning to DKNQQLKQKIQELEQEIQELKWKNQELEQ [4H3855-bN], the interaction score with 4H3855-bN was 0.124; in the assay with 4H4001-bN, 0.118; with 4H454-bN, -0.525; with 4H568-bN it was 0.0333; with 4H607-bN it was -0.914; with 4H687-bN, -1.97. Moreover, the interaction score in the assay with 4H717-bN was -0.464; with 4H72-bN, -0.0369; with 4H754-bN, -0.585; with 4H797-bN it was -0.544; in the assay with 4H883-bN it was -0.0328; with 4H908-bN, -0.268. Further, the interaction score with 4H918-bN is -1.48; in the assay with 4H953-bN, -0.653; with 4H967-bN it was -0.415.

These data come from article PMC10397247.
